Test system: c-Kit+ mucosal mast cells of the small intestine
Experiment: Ex vivo mast cell activation test (MCAT)
Format: cell-based, mouse
Conditions: cells from allergic mice, HRF-2CA 300 μg/ml
Method: FIGS. 2A-2C show mucosal mast cells can be activated ex vivo by antigen. Cells were released with EDTA from small intestines of non-sensitized/OVA challenged (Cont) or OVA-sensitized/OVA-challenged (OVA) mice, and mononuclear cells were selected. The cells were incubated for 15 min at 37° C. with OVA or anti-IgE antibody, and activation of Kit^+ mast cells was measured by flow cytometry (FIG. 2A, FIG. 2B). **, ***: p<0.01, p<0.001 by Student's t-test. (n=2; a representative of 2 independent experiments) (FIG. 2C) Mucosal cells derived from OVA-sensitized/OVA-challenged mice were stimulated with PBS (n=4), OVA (10 ng/ml, n=4) or HRF dimer (100 μg/ml, n=2) in the presence or absence of HRF-2CA (300 μg/ml).
FIGS. 11A-11C show HRF dimer, but not monomer can activate mast cells. (FIG. 11A) Purified dimeric and monomeric HRF expressed in E. coli. Recombinant HRF-[…] was purified first by Histrap HP and then Sephacryl S-200 HR16/60. Two peaks were observed by Sephacryl size fractionation. The first (Fr1) and second (Fr3) peaks contained dimer and monomer, respectively, as shown by SDS-PAGE. Fr1 and Fr3 were used for mast cell stimulation. (FIG. 11B) Cells were released with 10 mM EDTA from small intestines of OVA-sensitized/OVA-challenged mice, and mononuclear cells were selected. The cells were incubated for 15 min at 37° C. with mHRF monomer or dimer (100 μg/ml), or PBS, and Kit^+ mast cell activation (LAMP-1^+) was measured by flow cytometry (n=3). (FIG. 11C) Control experiments indicate an excellent specificity of the assay for HRF multimers. HRF-2CA (2CA) was used as a monomer control (n=2 for each concentration). Note that total concentrations of the 1:9 mixture of dimer:monomer gave almost the same luminescence values as did ten-fold less concentrations of dimer.
Twenty-four hours after the last OVA challenge, mice were sacrificed and small intestines (0.5-15 cm from stomach) were collected. The intestinal tissues were opened longitudinally and washed with PBS. Then, the tissues were incubated with 10 mM EDTA-PBS for 30 min at 37° C. After incubation, the tissues were transferred to 30 ml PBS in 50 ml tubes and vigorously shaken. After washed, the cells were resuspended in 40% Percoll solution and slowly loaded on the top of 75% Percoll solution. The cells were then centrifuged (2000 rpm, 20 min) and lymphocytes were collected. The cells were once centrifuged and resuspended in Tyrode's buffer. Abs (Biotin-anti-CD4 mAb (clone RM4-5), Biotin-anti-CD8 mAb (clone 53-6.7), Biotin-anti-B220 mAb (clone RA3-6B2), Biotin-anti-CD326 mAb (clone G8.8), PE-anti-CD117 (clone 2B8), AlexaFluor647-anti-LAMP-1 mAb (clone 1D4B)) (Biolegend) were added and cells were then stimulated with OVA, anti-IgE (clone RME-1, BioLegend) and recombinant dimeric murine HRF for 15 min at 37° C. After activation, cells were washed and incubated with FITC-streptavidin (Catalog #405202, Biolegend) for 30 min at 4° C. LAMP-1 expression was detected using FACS Calibur. Data were analyzed using FlowJo software.

B1: HRF-2CA-His6, a monomeric mutant of mouse HRF (protein)
chain: MIIYRDLISHDELFSDIYKIREIADGLALEVEGKMVSRTEGAIDDSLIGGNASAEGPEGEGTESTVVTGVDIVMNHHLQETSFTKEAYKKYIKDYMKSLKGKLEEQKPERVKPFMTGAAEQIKHILANFNNYQFFIGENMNPDGMVALLDYREDGVTPFMIFFKDGLEMEKAHHHHHH
- HRF-induced activation of mucosal mast cells (HRF dimer 100 μg/ml): significantly suppressed
- OVA-induced activation of mucosal mast cells (OVA 10 ng/ml): significantly suppressed
